Each block holds one molecule with its values, some of them ahead of it. Ends that are not written are not given here.
Legend:
Format in all cases: cell-based
CCR4 [1] = target: T1, CCR4 (Homo sapiens, UniProt P51679); test: Chemotaxis assay (48-well microchemotaxis chamber) of HEK293 cells transfected with CCR4
T1 construct: The cDNA fragments covering the open reading frames for various chemokine receptors were obtained as follows; expressed in transfected cells; host or cells: HEK293 (transient, electroporation)
T1 sequence (P51679 1-360): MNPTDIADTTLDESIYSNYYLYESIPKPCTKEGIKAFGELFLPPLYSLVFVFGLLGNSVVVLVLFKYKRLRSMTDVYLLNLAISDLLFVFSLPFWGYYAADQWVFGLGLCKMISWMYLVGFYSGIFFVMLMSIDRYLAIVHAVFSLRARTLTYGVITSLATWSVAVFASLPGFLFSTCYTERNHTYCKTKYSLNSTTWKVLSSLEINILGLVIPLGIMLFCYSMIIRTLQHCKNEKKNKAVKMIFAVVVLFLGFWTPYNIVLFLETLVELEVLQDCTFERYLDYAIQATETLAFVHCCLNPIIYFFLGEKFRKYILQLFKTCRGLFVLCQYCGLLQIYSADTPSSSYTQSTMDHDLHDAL
Method: (§1) HEK293 cells were grown in RPMI 1640 supplemented with 10% heat-inactivated FBS, penicillin (100 U/ml) and streptomycin (100 μg/ml). Every 4×10^6 HEK293 cells in 400 μl were transiently transfected by electroporation with 15 μg of the expression plasmid at 120 V, 20 ms using an electric pulse generator (Electro Square Porator ECM 830, BTX, San Diego, Calif.), and calcium mobilization assay and chemotaxis assays were performed 48 hours later.
(§2) The chemotaxis assay was performed using a 48-well microchemotaxis chamber (Neutroprobe; Cabin John, Md., U.S.A.). Chemoattractants were diluted in HEPES-buffered RPMI 1640 medium supplemented with 0.1% BSA and placed in the lower wells (28 μl/well). HEK293 cells transfected with pcDI-CCR4, -CCR5 were resuspended in the same medium at 2×10^6 cells/ml and added to the upper wells (50 μl/well), which were separated from the lower wells by a polyvinylpyrrolidone-free polycarbonate filter with 8-μm pores. The chamber was incubated for 2 hours at 37° C. in 5% CO2 and 95% air. Filters were removed from the chamber, washed, fixed, and stained with Three Step Stain Set. Cells that migrated were counted in 5 randomly selected high power fields (400×) per well. The chemotactic index (CI) was calculated from the number of cells that migrated to the control. Significant chemotaxis was defined as CI>2. In some experiments, cells were pretreated with TARC, RANTES, purified CKLF-myc protein or secreted CKLF1 peptides for 30 min. at 37° C., or 100 ng/ml PTX (ALEXIS Biochemicals Corporation) for 6 hours at 37° C. prior to subsequent stimulations.

U937 cells = test: Chemotaxis of U937 cells; conditions: for migration (chemotaxis) of U937 cells: C19, C27, RANTES: U937 cells stimulated by 30 ng/ml IFN-γ
Method: The chemotaxis assay was performed using a 48-well microchemotaxis chamber (Neutroprobe, Cabin John, Md., U.S.A.). U937 cells were stimulated by 30 ng/ml IFN-γ for 4 days because IFN-γ could increase the expression of chemokine receptors CCR1, CCR3, and CCR5 in U937 cells. Then part cells were incubated with mouse anti CCR5 100 μg/ml, and/or rat anti CCR3 10 μg/ml for 30 minutes at 37° C., and corresponding mouse IgG and rat IgG as controls. Chemoattractants RANTES, C19 and C27 were diluted in HEPES-buffered RPMI 1640 medium supplemented with 0.5% BSA to indicate concentration, and placed in the lower wells (28 μl/well). U937 cells stimulated by IFN-γ were resuspended in the same medium at 1×10^6 cells/ml and added to the upper wells (50 μl/well), which were separated from the lower wells by a polyvinylpyrrolidone-free polycarbonate filter with 5-μm pores pre-coated by 0.001% fibronectin. The chamber was incubated for 2 hours at 37° C. in 5% CO2 and 95% air. Filters were removed from the chamber, washed, fixed, and stained with Three Step Stain Set. Cells that migrated were counted in 5 randomly selected high power fields (400×) per well. The group with no Chemoattractants in the lower wells was used as a control. All samples were assayed twice at least. The chemotactic index (CI) was calculated from the number of cells that migrated to the control. Significant chemotaxis was defined as CI>2.

CCR6 = target: T2, CCR6 (Homo sapiens, UniProt P51684); test: Internalization of CCR6-EGFP in transiently transfected HEK293 cells; conditions: HEK293 cells transfected with pCCR6-EGFP; 37° C., 2 hours
T2 construct: The cDNA fragment covering the open reading frame for CCR6 chemokine receptor was cloned into pEGFP-N1 vector (CLONTECH); expressed in transfected cells; host or cells: HEK293 (transient)
T2 sequence (P51684 1-374): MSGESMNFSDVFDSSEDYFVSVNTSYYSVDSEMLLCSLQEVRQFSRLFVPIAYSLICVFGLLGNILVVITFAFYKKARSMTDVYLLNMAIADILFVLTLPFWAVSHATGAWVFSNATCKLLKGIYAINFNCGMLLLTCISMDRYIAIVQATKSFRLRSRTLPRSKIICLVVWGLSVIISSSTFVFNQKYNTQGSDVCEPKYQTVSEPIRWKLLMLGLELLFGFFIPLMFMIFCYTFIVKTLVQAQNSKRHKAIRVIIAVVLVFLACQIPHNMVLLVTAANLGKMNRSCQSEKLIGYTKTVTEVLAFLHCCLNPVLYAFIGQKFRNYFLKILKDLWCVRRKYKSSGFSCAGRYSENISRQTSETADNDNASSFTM
Method: (§3) The cDNA fragment covering the open reading frame for CCR6 chemokine receptor was cloned into pEGFP-N1 vector (CLONTECH). pCCR6-EGFP transiently expressing HEK293 cells were cultured in glass-bottom dishes in RPMI 1640 with 10% FBS. After 16-24 hours of serum starvation, cells were treated with CKLF1 C-terminal peptides or MIP3α at 37° C. for 2 hours. Cells were washed with cold PBS and fixed with 2% paraformaldehyde in PBS. The subcellular localization of CCR6-EGFP protein was visualized using a Leica TCS-NT confocal fluorescence microscope with a 63× oil immersion lens (Wetzler, Heidelberg, Germany). The excitation and emission wavelengths were 488 and 515-540 nm, respectively.

CCR5 [2] = target: T3, CCR5 (Homo sapiens, UniProt P51681); test: Calcium flux assay in CCR5-transfected HEK293 cells
T3 construct: The cDNA fragments covering the open reading frames for various chemokine receptors were obtained as follows; expressed in transfected cells; host or cells: HEK293 (transient, electroporation)
T3 sequence (P51681 whole entry, the tested form may be a part): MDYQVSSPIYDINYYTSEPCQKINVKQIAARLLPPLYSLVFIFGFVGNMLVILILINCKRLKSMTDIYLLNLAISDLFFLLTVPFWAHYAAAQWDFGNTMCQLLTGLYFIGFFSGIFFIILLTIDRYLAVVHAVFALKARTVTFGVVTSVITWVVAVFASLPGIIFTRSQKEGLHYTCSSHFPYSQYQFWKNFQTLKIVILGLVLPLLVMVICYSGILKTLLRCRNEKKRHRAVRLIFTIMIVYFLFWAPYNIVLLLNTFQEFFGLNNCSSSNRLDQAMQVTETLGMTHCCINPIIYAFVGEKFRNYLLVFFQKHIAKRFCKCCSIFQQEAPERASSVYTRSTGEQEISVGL
Source text: (§4) The cDNA fragments covering the open reading frames for various chemokine receptors were obtained as follows. CCR4, CCR5 and CCR6 receptors were cloned from a K562 cell cDNA library by polymerase chain reaction (PCR). The primers were designed using the sequences from the following GenBank™ submissions: CCR4 (NM_005508.2), CCR5 (NM_000579) and CCR6 (AY242126). The fragments were cloned into an expression vector pcDI (modified in our lab from pcDNA3 vector (Invitrogen), in which the part between BgI II-Kpn I was replaced by the fragment of pCl vector (Promega) digested with BgI II-Kpn I) or pEGFP-N1 vector (CLONTECH) for efficient expression in HEK293 cells. The sequences coding receptors in expression plasmids were confirmed by DNA sequencing, which is consistent with the sequence submitted in GenBank™.
as §1
(§5) HEK293 cells transfected with pcDI-CCR4 or pcDI-CCR5 were grown in specialized glass-bottom microwell dishes (MatTek Corporation, U.S.A.) and loaded with 10 μM fluo-3/AM in HEPES-buffered saline at 37° C. for 1 hour in the dark. The cells were rinsed with HEPES-buffered saline and stimulated with 167 nM secreted CKLF1 peptides and 100 nM TARC or RANTES, respectively. Fluorescence was monitored at 488 nm (excitation wavelength) and 530 nm (emission wavelength) every 5 second using a Leica TCS-NT confocal fluorescence microscope with a 40× oil immersion lens (Wetzler, Heidelberg, Germany). The measurement was completed at room temperature and each field of cells was selected at random. Images were collected at 5 second intervals for 405 seconds. The images were analyzed for relative fluorescence using Leica confocal software. The relative fluorescence was determined using Microsoft Excel. All calcium flux assays were performed in the presence of extracellular calcium (in the absence of EDTA or EGTA) in the assay buffers. Therefore, both intracellular calcium release and extracellular calcium influx were analyzed.

CCR5 [3] = target: T3, CCR5; test: Chemotaxis assay (48-well microchemotaxis chamber) of HEK293 cells transfected with CCR5
Method: as §1
as §2, with “In some experiments, cells were pretreated with TARC, RANTES, purified CKLF-myc protein or secreted CKLF1 peptides for 30 min. at 37° C., or 100 ng/ml PTX (ALEXIS Biochemicals Corporation) for 6 hours at 37° C. prior to subsequent stimulations.” left out

CCR4 [4] = target: T1, CCR4; test: Calcium flux assay in CCR4-transfected HEK293 cells
Source text: as §4, §1, §5

CCR4 [5] = target: T1, CCR4; test: Internalization of CCR4-EGFP in transiently transfected HEK293 cells; conditions: HEK293 cells transfected with pCCR4-EGFP; 37° C., 2 hours
Method: as §3, with “CCR4” for “CCR6”, “pCCR4-EGFP” for “pCCR6-EGFP”, “16 to 24” for “16-24”, “hours” for “hours of”, “TARC” for “MIP3α”, “CCR4-EGFP” for “CCR6-EGFP”

Molecule: CKLF1-myc protein: recombinant CKLF1-myc protein expressed in Drosophila S2 cells and purified from the supernatant (ALIYRKLLFNPSGPYQKKPVHEKKEVL; not fully specified)
migration (chemotaxis) of transfected cells (CCR4 [1]; CCR4-transfected HEK293 cells): could induce the chemotaxis
migration (chemotaxis) of U937 cells (U937 cells): can induce the chemotaxis

Molecule: MIP3α: chemokine used as comparison treatment in the CCR6-EGFP internalization assay [reference compound]
internalization of CCR6-EGFP (CCR6): internalization of chemokine receptors induced by MIP3α

Now from value to molecule, other results behind:

calcium flux (CCR5 [2]; CCR5-transfected HEK293 cells, 167 nM C27 or C19, 100 nM RANTES): induced calcium flux
chemotaxis induced after PTX pretreatment (CCR5 [3]; CCR5-transfected HEK293 cells treated with 100 ng/ml PTX at 37° C. for 30 min): completely abolished by PTX
Molecule: RANTES: cognate ligand for CCR5 (peprotech), positive control [reference compound]
desensitization of the receptor to subsequent stimulation with C27 and C19 (CCR5 [2]; CCR5 transfectants, pretreatment with 100 nM RANTES): desensitized the receptor
desensitization of the receptor to subsequent stimulation with the purified CKLF1-myc protein (chemotaxis) (CCR4 [1]; CCR4-transfected HEK293, pretreatment): could desensitize the receptor
desensitization of the receptor to subsequent stimulation with RANTES, C27 or C19 (chemotaxis) (CCR5 [3]; HEK293/CCR5, pretreatment 1 mM RANTES or 2 μg/ml C27 or C19, 37° C., 30 min): could desensitize the receptor
migration (chemotaxis) of U937 cells (U937 cells): could induce migration
chemotactic activity after neutralization of chemokine receptors (U937 cells; IFN-γ-stimulated U937 cells, mouse anti CCR5 and/or rat anti CCR3): obviously inhibited

calcium flux (CCR4 [4]; CCR4-transfected HEK293 cells, 167 nM C27 or C19, 100 nM TARC): induced calcium flux
chemotaxis induced after PTX pretreatment (CCR4 [1]; CCR4-transfected HEK293 cells treated with 100 ng/ml PTX at 37° C. for 30 min): completely abolished by PTX
B1: TARC: cognate ligand for CCR4 (peprotech), positive control (protein)
chain: ARGTNVGRECCLEYFKGAIPLRKLKTWYQTSEDCSRDAIVFVTVQGRAICSDPNNKRVKNAVKYLQSLERS
desensitization of the receptor to subsequent stimulation with C27 and C19 (CCR4 [4]; CCR4 transfectants, pretreatment with 100 nM TARC): desensitized the receptor
desensitization of the receptor to subsequent stimulation with TARC, C27 or C19 (chemotaxis) (CCR4 [1]; HEK293/CCR4, pretreatment TARC or 2 μg/ml C27 or C19, 37° C., 30 min): could desensitize the receptor
internalization of CCR4-EGFP (CCR4 [5]): internalization of chemokine receptors induced by TARC
